Results on 35 molecules are retold here after paper PMC10786891, “Massively parallel profiling of RNA-targeting CRISPR-Cas13d”.

One may read the Kd as the free concentration of one partner at which half of the binding sites on the other are occupied at equilibrium, for simple one-to-one binding. Read a low Kd as a tighter complex.

The labels stand for the following.
T1: EsCas13d, nuclease-dead (Eubacterium siraeum, UniProt B0MS50, R295A;H300A;R849A;H854A)
T1 sequence: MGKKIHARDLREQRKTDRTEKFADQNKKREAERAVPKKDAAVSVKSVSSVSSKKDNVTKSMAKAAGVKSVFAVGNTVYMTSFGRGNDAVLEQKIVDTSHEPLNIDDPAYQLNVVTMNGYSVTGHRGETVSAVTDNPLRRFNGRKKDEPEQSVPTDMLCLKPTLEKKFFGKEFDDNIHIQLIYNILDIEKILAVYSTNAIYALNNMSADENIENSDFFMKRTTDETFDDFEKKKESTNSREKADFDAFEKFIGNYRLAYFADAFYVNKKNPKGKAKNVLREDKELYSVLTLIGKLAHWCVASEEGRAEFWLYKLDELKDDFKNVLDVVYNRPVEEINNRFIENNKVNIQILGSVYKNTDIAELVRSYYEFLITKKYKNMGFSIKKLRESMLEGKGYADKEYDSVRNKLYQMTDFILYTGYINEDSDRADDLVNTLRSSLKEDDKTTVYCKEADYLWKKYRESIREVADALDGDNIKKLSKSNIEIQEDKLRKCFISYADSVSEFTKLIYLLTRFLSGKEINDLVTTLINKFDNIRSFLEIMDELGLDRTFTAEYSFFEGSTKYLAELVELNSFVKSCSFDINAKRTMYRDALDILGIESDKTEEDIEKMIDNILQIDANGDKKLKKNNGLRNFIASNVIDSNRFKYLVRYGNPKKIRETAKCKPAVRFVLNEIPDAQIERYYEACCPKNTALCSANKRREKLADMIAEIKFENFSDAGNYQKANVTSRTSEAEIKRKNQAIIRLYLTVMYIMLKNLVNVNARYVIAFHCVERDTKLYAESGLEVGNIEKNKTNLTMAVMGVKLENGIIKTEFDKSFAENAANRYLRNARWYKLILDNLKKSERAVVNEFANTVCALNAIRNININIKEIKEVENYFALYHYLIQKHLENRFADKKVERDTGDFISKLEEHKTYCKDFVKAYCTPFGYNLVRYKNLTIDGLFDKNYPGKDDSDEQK

B1: target 2 MT 5'PFS AUG 3'PFS AUG (mixed)
RNA 1: CACCCGUGCAAAAUUGCAGGGGUCUAAAACCUUCUCCAAAUUGUUUCAUCCU
RNA 2: GGGAAUGGAUCCACAUCUACGAAUUCAUGAGGAUGAAACAAUUUGGAGAAGAUGAGAUCGGAAGAGCACACGU
B2: target 2 MT 5'PFS GCU 3'PFS UGC (mixed)
RNA 1: B1 RNA 1
RNA 2: B1 RNA 2 with A27G, U28C, G29U, A52U, U53G, G54C
B3: target 2 MT 5'PFS UAA 3'PFS AAC (mixed)
RNA 1: B1 RNA 1
RNA 2: B1 RNA 2 with A27U, U28A, G29A, U53A, G54C
B4: target 2 MT 5'PFS GAU 3'PFS UAA (mixed)
RNA 1: B1 RNA 1
RNA 2: B1 RNA 2 with A27G, U28A, G29U, A52U, U53A, G54A
B5: target 2 MT 5'PFS GUG 3'PFS AUA (mixed)
RNA 1: B1 RNA 1
RNA 2: B1 RNA 2 with A27G, G54A
B6: target 2 MT 5'PFS UAA 3'PFS AAA (mixed)
RNA 1: B1 RNA 1
RNA 2: B1 RNA 2 with A27U, U28A, G29A, U53A, G54A
B7: target 2 MT 5'PFS UUU 3'PFS CUC (mixed)
RNA 1: B1 RNA 1
RNA 2: B1 RNA 2 with A27U, G29U, A52C, G54C
B8: target 2 MT 5'PFS GCC 3'PFS AAC (mixed)
RNA 1: B1 RNA 1
RNA 2: B1 RNA 2 with A27G, U28C, G29C, U53A, G54C
B9: target 2 MT 5'PFS GUG 3'PFS AUG (mixed)
RNA 1: B1 RNA 1
RNA 2: B1 RNA 2 with A27G
B10: target 2 MT 5'PFS GAC 3'PFS UCC (mixed)
RNA 1: B1 RNA 1
RNA 2: B1 RNA 2 with A27G, U28A, G29C, A52U, U53C, G54C
B11: target 2 MT 5'PFS GAU 3'PFS UAC (mixed)
RNA 1: B1 RNA 1
RNA 2: B1 RNA 2 with A27G, U28A, G29U, A52U, U53A, G54C
B12: target 2 MT 5'PFS GAU 3'PFS UAU (mixed)
RNA 1: B1 RNA 1
RNA 2: B1 RNA 2 with A27G, U28A, G29U, A52U, U53A, G54U
B13: target 2 MT 5'PFS GCU 3'PFS UGU (mixed)
RNA 1: B1 RNA 1
RNA 2: B1 RNA 2 with A27G, U28C, G29U, A52U, U53G, G54U
B14: target 2 MT 5'PFS CAG 3'PFS UAC (mixed)
RNA 1: B1 RNA 1
RNA 2: B1 RNA 2 with A27C, U28A, A52U, U53A, G54C
B15: target 2 MT 5'PFS CGC 3'PFS AGC (mixed)
RNA 1: B1 RNA 1
RNA 2: B1 RNA 2 with A27C, U28G, G29C, U53G, G54C
B16: target 2 MT 5'PFS GUG 3'PFS AUC (mixed)
RNA 1: B1 RNA 1
RNA 2: B1 RNA 2 with A27G, G54C
B17: target 2 MT 5'PFS CGA 3'PFS ACU (mixed)
RNA 1: B1 RNA 1
RNA 2: B1 RNA 2 with A27C, U28G, G29A, U53C, G54U
B18: target 2 MT 5'PFS AUA 3'PFS CCA (mixed)
RNA 1: B1 RNA 1
RNA 2: B1 RNA 2 with G29A, A52C, U53C, G54A
B19: target 2 MT 5'PFS GUG 3'PFS AUU (mixed)
RNA 1: B1 RNA 1
RNA 2: B1 RNA 2 with A27G, G54U
B20: target 2 MT 5'PFS GCC 3'PFS AAG (mixed)
RNA 1: B1 RNA 1
RNA 2: B1 RNA 2 with A27G, U28C, G29C, U53A
B21: target 2 MT 5'PFS GAU 3'PFS UAG (mixed)
RNA 1: B1 RNA 1
RNA 2: B1 RNA 2 with A27G, U28A, G29U, A52U, U53A
B22: target 2 MT 5'PFS CCU 3'PFS CCC (mixed)
RNA 1: B1 RNA 1
RNA 2: B1 RNA 2 with A27C, U28C, G29U, A52C, U53C, G54C
B23: target 2 MT 5'PFS GGU 3'PFS CUU (mixed)
RNA 1: B1 RNA 1
RNA 2: B1 RNA 2 with A27G, U28G, G29U, A52C, G54U
B24: target 2 MT 5'PFS GCC 3'PFS AAA (mixed)
RNA 1: B1 RNA 1
RNA 2: B1 RNA 2 with A27G, U28C, G29C, U53A, G54A
B25: target 2 MT 5'PFS UAA 3'PFS AAG (mixed)
RNA 1: B1 RNA 1
RNA 2: B1 RNA 2 with A27U, U28A, G29A, U53A
B26: target 2 MT 5'PFS AUA 3'PFS CCG (mixed)
RNA 1: B1 RNA 1
RNA 2: B1 RNA 2 with G29A, A52C, U53C
B27: target 2 MT 5'PFS CUG 3'PFS AGA (mixed)
RNA 1: B1 RNA 1
RNA 2: B1 RNA 2 with A27C, U53G, G54A
B28: target 2 MT 5'PFS UAA 3'PFS AAU (mixed)
RNA 1: B1 RNA 1
RNA 2: B1 RNA 2 with A27U, U28A, G29A, U53A, G54U
B29: target 2 MT 5'PFS GAG 3'PFS CUU (mixed)
RNA 1: B1 RNA 1
RNA 2: B1 RNA 2 with A27G, U28A, A52C, G54U
B30: target 2 MT 5'PFS CGC 3'PFS AGG (mixed)
RNA 1: B1 RNA 1
RNA 2: B1 RNA 2 with A27C, U28G, G29C, U53G
B31: target 2 MT 5'PFS CUG 3'PFS AGC (mixed)
RNA 1: B1 RNA 1
RNA 2: B1 RNA 2 with A27C, U53G, G54C
B32: target 1 insA 3' of 13,insG 3' of 7 (mixed)
RNA 1: CACCCGUGCAAAAAUGCAGGGGUCUAAAACUGAGCGGAUAACCUCUCUAUGG
RNA 2: GGGAAUGGAUCCACAUCUACGAAUUCGUACCAUAGAGAGAGUUAUCGCGCUCACCGAGAUCGGAAGAGCACACGU
B33: target 1 insU 3' of 9,insG 3' of 6 (mixed)
RNA 1: B32 RNA 1
RNA 2: B32 RNA 2 with A40G, G41U, U43A, A44U, G47C, C48G
B34: target 1 insA 3' of 10,insG 3' of 6 (mixed)
RNA 1: B32 RNA 1
RNA 2: B32 RNA 2 with A40G, G41U, U43A, G47C, C48G
B35: target 1 complement block 5-10 (mixed)
RNA 1: B32 RNA 1
RNA 2: GGGAAUGGAUCCACAUCUACGAAUUCGUACCAUAGAGAGGUAUAGGCCUCACCGAGAUCGGAAGAGCACACGU

Residue numbers refer to the chain shown, from its start.

The target in the series is T1, EsCas13d, nuclease-dead. The series is described as follows: crRNA (strand 1, pre-loaded); Mg2+; 40 mM Tris-HCl pH 7.5, 150 mM NaCl, 6 mM MgCl2, 1 mM DTT, 0.1% Tween-20, 0.2 mg/ml BSA; 25 C; 10 min per concentration, then washed. As to conditions: tags: His6-TwinStrep-SUMO cleaved; N-terminal SNAP kept (SNAP-Surface 488); label: 3' end held by stalled T7 RNA polymerase.
B1 registered a dissociation constant Kd of 9.9 ± 1.4 nM.
In turn, B2 yielded a Kd of 12.9 ± 2.1 nM.
With B3 the figure was 6.6 ± 1 nM; with B4, 12 ± 4 nM.
With B5 the figure was 11.3 ± 1.5 nM; with B6, 2.9 ± 0.8 nM.
As for B7, the Kd amounted to 8.4 ± 0.9 nM.
For B8, the Kd was 17 ± 5 nM.
With B9 the figure was 13.8 ± 1.3 nM; with B10, 50 ± 15 nM; with B11, 16 ± 3.4 nM.
The result for B12 reads 16 ± 4 nM; that for B13, 17.7 ± 2.7 nM.
Turning to B14, the Kd is 5.3 ± 1 nM.
With B15 the figure was 6.1 ± 1.5 nM.
With B16 the figure was 10.8 ± 0.8 nM; with B17, 17 ± 7 nM; with B18, 15.9 ± 2.5 nM.
With B19 the figure was 11.3 ± 0.9 nM.
Take B20: the Kd was 22 ± 5 nM.
The result for B21 reads 13.4 ± 2.7 nM; that for B22, 5.3 ± 2 nM; that for B23, 16.7 ± 1.3 nM.
The result for B24 reads 11.9 ± 3.4 nM; that for B25, 4.5 ± 0.6 nM.
Regarding B26, binding was characterised by a dissociation constant (Kd) of 8.5 ± 0.8 nM.
With B27 the figure was 2.16 ± 0.2 nM; with B28, 4.7 ± 0.6 nM.
The result for B29 reads 8.9 ± 0.7 nM; that for B30, 3.4 ± 0.5 nM; that for B31, 2.52 ± 0.2 nM.
Molecule B32 had a Kd of 4.48 ± 0.22 nM.
In turn, B33 gave a Kd of 12.1 ± 1.4 nM.
Regarding B34, the Kd is 9.9 ± 0.4 nM.
With B35 the figure was 14.5 ± 0.7 nM.
